This passage reports Kd results from patent publication US20260167699A1 (Chugai, published 2026).

Substitutions are numbered along the chain they refer to.

Broadly, the Kd is the concentration at which binding is half-saturated.

B1: H240-Kn125/H240-Hl076/L73-k0 (antibody, human IgG1, kappa)
heavy 1: QDQLVQSGAEVKKPGASVKVSCKASGFNIKDTYIQWVRQAPGQGLEWMGRIDPLRKQTKYREKFEGRVTITADTSTNTAYMELSSLRSEDTAVYYCVRSGREFDYWGQGTLVTVSSASTKGPSVFPLAPSSKSTSGGTAALGCLVKDYFPEPVTVSWNSGALTSGVHTFPAVLQSSGLYSLSSVVTVPSSSLGTQTYICNVNHKPSNTKVDKKVEPKSCDKTHTCPPCPAPELLGGPSVFLFPPKPKDTLMISRTPEVTCVVVDVSHEEPEVKFNWYVDGVEVHNAKTKPREEQYNSTYRVVSVLTVLHQDWLNGKEYKCKVSNDALPMPIEETISKAKGQPREPQVYTLPPSRCELTKNQVSLSCAVKGFYPSDIAVEWESNGQPENNYKTTPPVLDSDGSFFLVSKLTVDKSRWQQGNVFSCSVMHEALHNHYTQKSLSLSP
heavy 2: QDQLVQSGAEVKKPGASVKVSCKASGFNIKDTYIQWVRQAPGQGLEWMGRIDPLRKQTKYREKFEGRVTITADTSTNTAYMELSSLRSEDTAVYYCVRSGREFDYWGQGTLVTVSSASTKGPSVFPLAPSSKSTSGGTAALGCLVKDYFPEPVTVSWNSGALTSGVHTFPAVLQSSGLYSLSSVVTVPSSSLGTQTYICNVNHKPSNTKVDKKVEPKSCDKTHTCPPCPAPEYQWGPMVFLFPPKPKDTLMISRTPEVTCVVVDVSDEEPEVKFNWYVDGVEVHNAKTKPREEQYNATYRVVSVLTVLHQDWLNGKEYKCKVSNKALPAPIEKTISKAKGQPREPQVCTLPPSRDELTKNQVSLWCLVKGFYPSDIAVEWESNGQPENNYKTTPPVLDSDGSFFLYSKLTVDKSRWQQGNVFSCSVMHEALHNHYTQKSLSLSP
light: DIQMTQSPSSLSASVGDRVTITCRASQDIHKYIAWYQQKPGQAPRLLIQYTSTLQPGVPSRFSGSGSGTDYTFTISSLQPEDIATYYCLQYEQLRTFGGGTKVEIKRTVAAPSVFIFPPSDEQLKSGTASVVCLLNNFYPREAKVQWKVDNALQSGNSQESVTEQDSKDSTYSLSSTLTLSKADYEKHKVYACEVTHQGLSSPVTKSFNRGEC
notes: heterodimerized anti-EREG antibody, parent of the loop-extended forms; also called HI076/Kn125; parent peptide
B2: HI076-L2-GS12 (antibody, human IgG1, kappa)
heavy 1: QDQLVQSGAEVKKPGASVKVSCKASGFNIKDTYIQWVRQAPGQGLEWMGRIDPLRKQTKYREKFEGRVTITADTSTNTAYMELSSLRSEDTAVYYCVRSGREFDYWGQGTLVTVSSASTKGPSVFPLAPSSKSTSGGTAALGCLVKDYFPEPVTVSWNSGALTSGVHTFPAVLQSSGLYSLSSVVTVPSSSLGTQTYICNVNHKPSNTKVDKKVEPKSCDKTHTCPPCPAPELLGGPSVFLFPPKPKDTLMISRTPEVTCVVVDVGGGSGGGSGGGSVKFNWYVDGVEVHNAKTKPREEQYNSTYRVVSVLTVLHQDWLNGKEYKCKVSNDALPMPIEETISKAKGQPREPQVYTLPPSRCELTKNQVSLSCAVKGFYPSDIAVEWESNGQPENNYKTTPPVLDSDGSFFLVSKLTVDKSRWQQGNVFSCSVMHEALHNHYTQKSLSLSP
heavy 2: B1 heavy 2
light: B1 light
notes: heterodimerized anti-EREG antibody: altered H240-Hl076 chain (Gly/Ser peptide in loop) with H240-Kn125 and L73-k0; also called Hl076-L2-GS12_2
B3: HI076-L2-6 (antibody, human IgG1, kappa)
heavy 1: B2 heavy 1 with G266S, G267H, S269G, G270S, G274E, G275E, G276P, S277E
heavy 2: B1 heavy 2
light: B1 light
notes: heterodimerized anti-EREG antibody: altered H240-Hl076 chain (Gly/Ser peptide in loop) with H240-Kn125 and L73-k0; also called Hl076-L2-6
B4: HI076-L2-GS6 (antibody, human IgG1, kappa)
heavy 1: B1 heavy 1 with S266G, H267G, E268S, E269G, P270G, E271S
heavy 2: B1 heavy 2
light: B1 light
notes: heterodimerized anti-EREG antibody: altered H240-Hl076 chain (Gly/Ser peptide in loop) with H240-Kn125 and L73-k0; also called Hl076-L2-GS6_2
B5: Kn125-L4-GS5 (antibody, human IgG1, kappa)
heavy 1: B1 heavy 1
heavy 2: B1 heavy 2 with K325G, A326S, L327G, P328G, A329S
light: B1 light
notes: heterodimerized anti-EREG antibody: altered H240-Kn125 chain (Gly/Ser peptide in loop) with H240-Hl076 and L73-k0

In the experiment the target is T1, FcγRIIIaV (human, UniProt P08637 17-208).
T1 construct: extracellular domain
T1 sequence (P08637 other isoform, or with tags, fused parts or gaps): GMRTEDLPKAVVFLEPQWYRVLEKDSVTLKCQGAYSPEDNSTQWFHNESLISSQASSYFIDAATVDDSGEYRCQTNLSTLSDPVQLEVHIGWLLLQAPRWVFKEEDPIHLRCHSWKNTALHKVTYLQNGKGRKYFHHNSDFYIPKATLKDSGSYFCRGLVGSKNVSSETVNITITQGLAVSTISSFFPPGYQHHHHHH
Kind of experiment: SPR (Biacore), antibody captured, FcγR as analyte, 1:1 Langmuir fit.
Experimental: The antibody of interest was analyzed for its interaction with FcγR using a BiaCore™ T100, BiaCore™ A100, or BiaCore™ 4000 surface plasmon resonance system (GE Healthcare Japan Corp.). The running buffer used was HBS-EP+ (GE Healthcare Japan Corp.). The assay temperature was set to 25° C. The sensor chips used were: a chip prepared by immobilizing antigenic peptides onto Series S Sensor Chip CM5 (GE Healthcare Japan Corp.) by the amine coupling method; a chip prepared by immobilizing antigenic peptides biotinylated in advance onto Series S Sensor Chip SA (certified) (GE Healthcare Japan Corp.) through their interaction; a chip prepared by immobilizing protein L (ACTIGEN, BioVision, Inc.) onto Series S Sensor Chip CM5 (GE Healthcare Japan Corp.); and a chip prepared by immobilizing protein A/G (Thermo Fisher Scientific K.K.) onto Series S Sensor Chip CM5 (GE Healthcare Japan Corp.). The antibody of interest was captured onto any of these chips and allowed to interact with FcγR diluted with a running buffer. The antibody captured on the chip was washed off through the reaction of 10 mM glycine-HCl (pH 1.5) to regenerate the chip, which was repetitively used.
In turn, B1 displayed an equilibrium dissociation constant (Kd) of 0.47 nM.
B2 yielded an equilibrium dissociation constant (Kd) of 2.8 nM. This Kd lies about 6-fold higher than the previous one.
The molecule B3 displayed a Kd of 1.9 nM.
In the case of B4 it was 2.8 nM; in that of B5, 1.8 nM.
